# Assay results published in patent US20240117018A1.
# Legend:
# Assay in all cases: cell-based or functional assay
# [1] = target: HIV-1 Env of pseudovirus 0815.v3.c3 (HIV-1)
# [2] = target: HIV-1 Env of pseudovirus 191084 B7-19 (HIV-1)
# [3] = target: HIV-1 Env of pseudovirus 191955_A11 (HIV-1)
# [4] = target: HIV-1 Env of pseudovirus 211-9 (HIV-1)
# [5] = target: HIV-1 Env of pseudovirus 231966.c02 (HIV-1)
# [6] = target: HIV-1 Env of pseudovirus 235-47 (HIV-1)
# [7] = target: HIV-1 Env of pseudovirus 263-8 (HIV-1)
# [8] = target: HIV-1 Env of pseudovirus 3016.v5.c45 (HIV-1)
# [9] = target: HIV-1 Env of pseudovirus 3103.v3.c10 (HIV-1)
# [10] = target: HIV-1 Env of pseudovirus 3301.v1.c24 (HIV-1)
# [11] = target: HIV-1 Env of pseudovirus 3817.v2.c59 (HIV-1)
# [12] = target: HIV-1 Env of pseudovirus 6041.v3.c23 (HIV-1)
# [13] = target: HIV-1 Env of pseudovirus 620345.c01 (HIV-1)
# [14] = target: HIV-1 Env of pseudovirus 6480.v4.c25 (HIV-1)
# [15] = target: HIV-1 Env of pseudovirus 6540.v4.c1 (HIV-1)
# [16] = target: HIV-1 Env of pseudovirus 6545.v4.c1 (HIV-1)
# [17] = target: HIV-1 Env of pseudovirus 6811.v7.c18 (HIV-1)
# [18] = target: HIV-1 Env of pseudovirus 6952.v1.c20 (HIV-1)
# [19] = target: HIV-1 Env of pseudovirus 89-F1_2_25 (HIV-1)
# [20] = target: HIV-1 Env of pseudovirus 9004SS_A3_4 (HIV-1)
# [21] = target: HIV-1 Env of pseudovirus 928-28 (HIV-1)
# [22] = target: HIV-1 Env of pseudovirus A07412M1.vrc12 (HIV-1)
# [23] = target: HIV-1 Env of pseudovirus BJOX010000.06.2 (HIV-1)
# [24] = target: HIV-1 Env of pseudovirus BJOX025000.01.1 (HIV-1)
# [25] = target: HIV-1 Env of pseudovirus C1080.c03 (HIV-1)
# [26] = target: HIV-1 Env of pseudovirus C3347.c11 (HIV-1)
# [27] = target: HIV-1 Env of pseudovirus C4118.c09 (HIV-1)
# [28] = target: HIV-1 Env of pseudovirus P0402_c2_11 (HIV-1)
# [29] = target: HIV-1 Env of pseudovirus R1166.c01 (HIV-1)
# [30] = target: HIV-1 Env of pseudovirus R2184.c04 (HIV-1)
# [31] = target: HIV-1 Env of pseudovirus R3265.c06 (HIV-1)
# [32] = target: HIV-1 Env of pseudovirus T251-18 (HIV-1)
# [33] = target: HIV-1 Env of pseudovirus T255-34 (HIV-1)
# [34] = target: HIV-1 Env of pseudovirus T278-50 (HIV-1)
# [35] = target: HIV-1 Env of pseudovirus X1193_c1 (HIV-1)
# [36] = target: HIV-1 Env of pseudovirus X2088_c9 (HIV-1)
# [37] = target: HIV-1 Env of pseudovirus X2131_C1_B5 (HIV-1)
substance,measurement,setting,value
PGDM1400 (antibody),IC50 (Titer in TZM.bl cells),[1],> 50 µg/mL
same,IC80 (Titer in TZM.bl cells),[1],> 50 µg/mL
same,neutralization IC50,[2],< 0.001 µg/mL
same,neutralization IC80,[2],0.007 µg/mL
same,neutralization IC50,[3],0.001 µg/mL
same,neutralization IC80,[3],0.021 µg/mL
same,IC50 (Titer in TZM.bl cells),[4],0.088 µg/mL
same,IC80 (Titer in TZM.bl cells),[4],0.393 µg/mL
same,IC50 (Titer in TZM.bl cells),[5],0.001 µg/mL
same,IC80 (Titer in TZM.bl cells),[5],0.004 µg/mL
same,IC50 (Titer in TZM.bl cells),[6],0.005 µg/mL
same,IC80 (Titer in TZM.bl cells),[6],0.032 µg/mL
same,neutralization IC50,[7],0.02 µg/mL
same,neutralization IC80,[7],0.103 µg/mL
same,IC50 (Titer in TZM.bl cells),[8],> 50 µg/mL
same,IC80 (Titer in TZM.bl cells),[8],> 50 µg/mL
same,IC50 (Titer in TZM.bl cells),[9],0.671 µg/mL
same,IC80 (Titer in TZM.bl cells),[9],2 µg/mL
same,IC50 (Titer in TZM.bl cells),[10],0.048 µg/mL
same,IC80 (Titer in TZM.bl cells),[10],0.245 µg/mL
same,IC50 (Titer in TZM.bl cells),[11],> 50 µg/mL
same,IC80 (Titer in TZM.bl cells),[11],> 50 µg/mL
same,IC50 (Titer in TZM.bl cells),[12],0.013 µg/mL
same,IC80 (Titer in TZM.bl cells),[12],0.289 µg/mL
same,IC50 (Titer in TZM.bl cells),[13],0.009 µg/mL
same,IC80 (Titer in TZM.bl cells),[13],40.3 µg/mL
same,IC50 (Titer in TZM.bl cells),[14],> 50 µg/mL
same,IC80 (Titer in TZM.bl cells),[14],> 50 µg/mL
same,IC50 (Titer in TZM.bl cells),[15],0.004 µg/mL
same,IC80 (Titer in TZM.bl cells),[15],0.028 µg/mL
same,IC50 (Titer in TZM.bl cells),[16],0.003 µg/mL
same,IC80 (Titer in TZM.bl cells),[16],0.039 µg/mL
same,IC50 (Titer in TZM.bl cells),[17],> 50 µg/mL
same,IC80 (Titer in TZM.bl cells),[17],> 50 µg/mL
same,IC50 (Titer in TZM.bl cells),[18],0.501 µg/mL
same,IC80 (Titer in TZM.bl cells),[18],11.8 µg/mL
same,IC50 (Titer in TZM.bl cells),[19],0.001 µg/mL
same,IC80 (Titer in TZM.bl cells),[19],0.005 µg/mL
same,neutralization IC50,[20],< 0.001 µg/mL
same,neutralization IC80,[20],0.002 µg/mL
same,neutralization IC50,[21],0.22 µg/mL
same,neutralization IC80,[21],1.25 µg/mL
same,IC50 (Titer in TZM.bl cells),[22],0.032 µg/mL
same,IC80 (Titer in TZM.bl cells),[22],0.127 µg/mL
same,IC50 (Titer in TZM.bl cells),[23],0.605 µg/mL
same,IC80 (Titer in TZM.bl cells),[23],5.87 µg/mL
same,IC50 (Titer in TZM.bl cells),[24],0.087 µg/mL
same,IC80 (Titer in TZM.bl cells),[24],0.573 µg/mL
same,IC50 (Titer in TZM.bl cells),[25],< 0.001 µg/mL
same,IC80 (Titer in TZM.bl cells),[25],< 0.001 µg/mL
same,IC50 (Titer in TZM.bl cells),[26],0.011 µg/mL
same,IC80 (Titer in TZM.bl cells),[26],0.051 µg/mL
same,IC50 (Titer in TZM.bl cells),[27],0.002 µg/mL
same,IC80 (Titer in TZM.bl cells),[27],0.005 µg/mL
same,IC50 (Titer in TZM.bl cells),[28],0.01 µg/mL
same,IC80 (Titer in TZM.bl cells),[28],0.033 µg/mL
same,IC50 (Titer in TZM.bl cells),[29],1.43 µg/mL
same,IC80 (Titer in TZM.bl cells),[29],6.92 µg/mL
same,IC50 (Titer in TZM.bl cells),[30],0.003 µg/mL
same,IC80 (Titer in TZM.bl cells),[30],0.012 µg/mL
same,IC50 (Titer in TZM.bl cells),[31],0.013 µg/mL
same,IC80 (Titer in TZM.bl cells),[31],0.041 µg/mL
same,IC50 (Titer in TZM.bl cells),[32],8.62 µg/mL
same,IC80 (Titer in TZM.bl cells),[32],43.1 µg/mL
same,IC50 (Titer in TZM.bl cells),[33],0.654 µg/mL
same,IC80 (Titer in TZM.bl cells),[33],> 50 µg/mL
same,IC50 (Titer in TZM.bl cells),[34],0.574 µg/mL
same,IC80 (Titer in TZM.bl cells),[34],4.94 µg/mL
same,IC50 (Titer in TZM.bl cells),[35],0.219 µg/mL
same,IC80 (Titer in TZM.bl cells),[35],0.781 µg/mL
same,IC50 (Titer in TZM.bl cells),[36],> 50 µg/mL
same,IC80 (Titer in TZM.bl cells),[36],> 50 µg/mL
same,IC50 (Titer in TZM.bl cells),[37],0.128 µg/mL
same,IC80 (Titer in TZM.bl cells),[37],0.568 µg/mL
